The data set concerns T1, peptide corresponding to the first 22 amino acids of histone 4, chemically acetylated in vitro.
T1 sequence: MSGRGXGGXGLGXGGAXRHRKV

The results in this text go back to US20040091953.

Consider hSIRT6, for which the NAD-dependent deacetylase activity result is on record as “showed no detectable activity”.
